Results as given in US20200071406A1 (AGENCY FOR SCIENCE TECHNOLOGY AND RESEARCH, published 2020).

Target: T1, soluble peptide MHC complex of p53125-134 and soluble HLA*A2402 (human)
T1 construct: Soluble complex used for phage selection, ELISA and SPR; also called p53-A24; p53-A24 monomers
Experiment: surface plasmon resonance

B1: P1C1_gl (antibody, V domains shown)
VH: QVQLQESGPGLVKPSQTLSLTCTVSGGSISSGGYYWSWIRQHPGKGLEWIGYIYYSGSTYYNPSLKSRVTISVDTSKNQFSLKLSSVTAADTAVYYCARENFGAFDHWGQGTLVTVSS
VL: QSVLTQPPSVSGAPGQRVTISCTGSSSNIGADYETHWYQQLPGTAPKLLIYGNTNRPSGVPDRFSGSKSGTSASLAITGLQAEDEADYYCQSYDSNLSAWVFGGGTKLTILS
notes: it induces ADCC, so it has an Fc; also called germline version of P1C1; original germline clone
Kd: 364 nM
